# Measured values: patent publication US20240336672A1 (INSTITUT PASTEUR, published 2024)
# B1: CB6 (parental IgG1 version) (antibody, V domains shown)
# VH: EVQLVESGGGLVQPGGSLRLSCAASGFTVSSNYMSWVRQAPGKGLEWVSVIYSGGSTFYADSVKGRFTISRDNSMNTLFLQMNSLRAEDTAVYYCARVLPMYGDYLDYWGQGTLVTVSS
# VL: not shown
# B2: LY-CoV555 (parental IgG1 version) (antibody, V domains shown)
# VH: QVQLVQSGAEVKKPGSSVKVSCKASGGTFSNYAISWVRQAPGQGLEWMGRIIPILGIANYAQKFQGRVTITADKSTSTAYMELSSLRSEDTAVYYCARGYYEARHYYYYYAMDVWGQGTAVTVSS
# VL: not shown
# B3: Cv2.3132 (IgG) (antibody, V domains shown)
# VH: EVQLVESGGGLVKPGGSLRLSCAASGFTFSDYYMSWIRQAPGKGLEWVSYISSSGSVQYYADSVKGRFTISRDNAENSLYLQMNSLRAEDTAVYYCARYYYDSSGYWKRLDYWGQGTLVTVSS
# VL: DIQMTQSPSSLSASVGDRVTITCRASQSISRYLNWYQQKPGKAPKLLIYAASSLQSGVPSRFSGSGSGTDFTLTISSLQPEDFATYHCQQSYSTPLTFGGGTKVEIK
# B4: CV2.1174 (antibody, V domains shown)
# VH: EVQLVESGPEVKKPGTSVKVSCKASGFTFTRSAMQWVRQARGQRLEWIGWIVVGSGNTNYAQKFQERVTITRDMSTSTAYMELSSLRSEDTAVYYCAARQDYYYYGMDVWGQGTTVTVSS
# VL: DIQMTQSPSSLSASVGDRVTITCRASQGMSNSLDWDQQKPGKAPKLLLYAASRLKSGVPSRFSGSGSGTDYTLTISSLQPEDFATYYCQQYYSDPPKTFGQGTKVEIK
# B5: Cv2.5179 (recombinant human IgG1) (antibody, V domains shown)
# VH: QVQLVQSGPEVKKPGTSVKVSCKASGFTFTSSAVQWVRQARGQRLEWIGWIVVGSGNTNYAQKFQERVTITRDMSTSTAYMELSSLRSEDTAVYYCAAPHCSSTSCYDAFDIWGQGTMVTVSS
# VL: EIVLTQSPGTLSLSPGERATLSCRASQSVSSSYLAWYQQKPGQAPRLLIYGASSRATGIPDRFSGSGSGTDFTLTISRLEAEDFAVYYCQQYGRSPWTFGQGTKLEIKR
# notes: also called Cv2.5179 IgG
# B6: CV2.1388 (antibody)
# heavy chain: QVQLVQSGPEVKKPGTSVKVSCKASGFTFTSSAVQWVRQARGQRLEWIGWIVVGSGDTNYAQKFQERVTITRDMSTSTAYMELSSLRSEDTAVYYCATDRQAGSRTYYFPGEGWFDPWGQGTLVTVSS
# light chain: QSVLTQPPSVSAAPGQKVTISCSGSTTNIGNNYVSWYQRLPGTAPKLLIYDNNKRPSGIPDRFSGSKSGTSATLGITGLQTGDEADYYCGTWDSSLSGVVFRRRDQADRPR
# How the values were obtained:
# [1] = biological target: SARS-CoV-2 spike, Beta variant (B.1.351), on virus or pseudotyped particles (SARS-CoV-2); experiment: cell-based or functional assay
# [2] = biological target: SARS-CoV-2 spike, Gamma variant (P.1), on virus or pseudotyped particles (SARS-CoV-2); experiment: cell-based or functional assay
# [3] = biological target: T1, SARS-CoV-2 spike, Delta variant (B.1.617.2), on virus or pseudotyped particles (SARS-CoV-2); experiment: cell-based or functional assay
# [4] = biological target: T2, SARS-CoV-2 Spike ectodomain (tri-S), Wuhan (SARS-CoV-2, UniProt P0DTC2 14-1208); experiment: infrared immunoblot on heat-denatured tri-S
# [5] = biological target: T2, SARS-CoV-2 Spike ectodomain (tri-S), …; experiment: ELISA
# [6] = biological target: T2, SARS-CoV-2 Spike ectodomain (tri-S), …; experiment: ELISA; parameters: unit not given beside the values
# [7] = biological target: SARS-CoV-2 RBD (B.1.1.7) domain (SARS-CoV-2); experiment: ELISA; parameters: unit not given beside the values
# [8] = biological target: SARS-CoV-2 RBD (B.1.351) domain (SARS-CoV-2); experiment: ELISA; parameters: unit not given beside the values
# [9] = biological target: SARS-CoV-2 RBD (P.1) domain (SARS-CoV-2); experiment: ELISA; parameters: unit not given beside the values
# [10] = biological target: T3, SARS-CoV-2 kappa variant B.1.617.1/3 RBD domain (SARS-CoV-2); experiment: ELISA; parameters: unit not given beside the values
# [11] = biological target: T4, SARS-CoV-2 delta variant B.1.617.2/3 RBD domain (SARS-CoV-2); experiment: ELISA; parameters: unit not given beside the values
# [12] = biological target: SARS-CoV-2 delta plus variant RBD (SARS-CoV-2); experiment: ELISA; parameters: unit not given beside the values
# [13] = biological target: SARS-CoV-2 RBD (B.1.351) domain (SARS-CoV-2); experiment: ELISA; parameters: unit not given beside the values; remark: listed apart in the source
# [14] = biological target: SARS-CoV-2 omicron variant B.1.1.529 RBD domain (SARS-CoV-2); experiment: ELISA; parameters: unit not given beside the values
# [15] = biological target: SARS-CoV-2 omicron variant B.1.1.529 Spike ectodomain (tri-S, HexaPro) (SARS-CoV-2, UniProt P0DTC2 14-1208); experiment: ELISA; parameters: unit not given beside the values
# [16] = biological target: T1, SARS-CoV-2 spike, Delta variant …; experiment: cell-based or functional assay; remark: listed apart in the source
# [17] = biological target: SARS-CoV-2 RBD (B.1.1.7) domain (SARS-CoV-2); experiment: RBD-ACE2 competition ELISA; parameters: unit not given beside the values
# [18] = biological target: SARS-CoV-2 RBD (B.1.351) domain (SARS-CoV-2); experiment: RBD-ACE2 competition ELISA; parameters: unit not given beside the values
# [19] = biological target: SARS-CoV-2 RBD (P.1) domain (SARS-CoV-2); experiment: RBD-ACE2 competition ELISA; parameters: unit not given beside the values
# [20] = biological target: T3, SARS-CoV-2 kappa variant B.1.617.1/3 …; experiment: RBD-ACE2 competition ELISA; parameters: unit not given beside the values
# [21] = biological target: T4, SARS-CoV-2 delta variant B.1.617.2/3 …; experiment: RBD-ACE2 competition ELISA; parameters: unit not given beside the values
# [22] = biological target: SARS-CoV-2 delta plus variant RBD (SARS-CoV-2); experiment: RBD-ACE2 competition ELISA; parameters: unit not given beside the values
# [23] = biological target: T4, SARS-CoV-2 delta variant B.1.617.2/3 …; experiment: RBD-ACE2 competition ELISA
binder,measurement,setting,value
B1,"IC50, in vitro neutralisation",[1],> 25 nM
same,"IC50, in vitro neutralisation",[2],> 25 nM
B2,"IC50, in vitro neutralisation",[1],> 25 nM
same,"IC50, in vitro neutralisation",[2],> 25 nM
same,"IC50, in vitro neutralisation",[3],> 25 nM
B3,binding result,[4],binds
B4,binding result,[5],no binding (tested: 10 µg/ml)
B5,AUC (Binding),[6],12
same,AUC (Binding),[7],11
same,AUC (Binding),[8],11
same,AUC (Binding),[9],11
same,AUC (Binding),[10],12
same,AUC (Binding),[11],12
same,AUC (Binding),[12],12
same,AUC,[13],12
same,AUC,[14],2
same,AUC,[15],3
same,"IC50, S-Fuse neutralisation",[16],0.0052 µg/mL
same,AUC (Blocking),[17],64
same,AUC (Blocking),[18],49
same,AUC (Blocking),[19],50
same,AUC (Blocking),[20],114
same,AUC (Blocking),[21],115
same,AUC (Blocking),[22],144
same,IC50 (read off the curve),[23],~0.4 µg/mL
B6,binding result,[5],no binding (tested: 10 µg/ml)
